Article PMC9126943, “ADAMTS4-specific MR probe to assess aortic aneurysms in vivo using synthetic peptide libraries” (Nature Communications, 2022)
Where a SMILES comes first, the peptide text is derived from it. Bridges are numbered along the chain shown (N, C = ends). The star is where a group is joined. Cy5(nonsulfonated) = CN1C(=CC=CC=CC2=[N+](CCCCCC(=O)*)c3ccccc3C2(C)C)C(C)(C)c2ccccc21; DOTA = O=C(O)CN1CCN(CC(=O)O)CCN(CC(=O)*)CCN(CC(=O)O)CC1

Tests used:
ADAMTS4 [1] = target: T1, ADAMTS4 (Homo sapiens, UniProt O75173); test: Relaxivity at 3 Tesla, unbound and bound to ADAMTS4; type: physicochemical; settings: 3 T, 1% BSA in PBS
T1 construct: purchased R&D systems 4307-AD-020
T1 sequence (O75173 213-837): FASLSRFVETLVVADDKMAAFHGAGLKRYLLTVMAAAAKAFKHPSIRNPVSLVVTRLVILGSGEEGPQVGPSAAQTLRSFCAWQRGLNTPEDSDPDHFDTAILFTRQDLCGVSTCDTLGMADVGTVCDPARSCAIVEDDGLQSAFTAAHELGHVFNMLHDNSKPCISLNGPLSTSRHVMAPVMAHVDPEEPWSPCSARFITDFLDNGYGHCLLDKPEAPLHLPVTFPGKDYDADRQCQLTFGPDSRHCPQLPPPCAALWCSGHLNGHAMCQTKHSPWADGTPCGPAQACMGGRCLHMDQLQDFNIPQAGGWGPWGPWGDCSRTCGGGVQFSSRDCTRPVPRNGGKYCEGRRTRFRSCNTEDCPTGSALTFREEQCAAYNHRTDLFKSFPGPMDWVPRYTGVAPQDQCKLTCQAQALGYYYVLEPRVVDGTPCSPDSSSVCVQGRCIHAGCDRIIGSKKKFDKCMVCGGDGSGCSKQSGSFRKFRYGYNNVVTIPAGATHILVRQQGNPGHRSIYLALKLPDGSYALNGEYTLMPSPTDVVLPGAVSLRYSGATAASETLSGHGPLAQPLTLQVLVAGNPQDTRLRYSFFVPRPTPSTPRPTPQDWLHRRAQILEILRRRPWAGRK
Method: One milliliter of a 1 µg/ml solution of the ADAMTS4-specific probe in 1% BSA in PBS buffer was measured in a reaction tube using a 3 T MRI scanner. 1% BSA in PBS buffer was used as a negative control. After each scan, 50 µl of a 0.2 µg/µl solution of ADAMTS4 (R&D systems, 4307-AD-020) was added to one reaction tube, while 50 µl of the 1% BSA in PBS buffer was added to the second reaction tube. Tubes were shaken and measured again. The following ADAMTS4 concentrations were measured: 0 µg, 10 µg, 20 µg, 30 µg, 40 µg, 50 µg, and 60 µg.

ADAMTS4 [2] = target: T2, ADAMTS4 (Homo sapiens, UniProt O75173); test: MST instrument, ligand-dependent fluorescence change, Cy5-labeled peptides vs ADAMTS4 (incl. alanine scan); type: binding; settings: Cy5-labeled peptide 3 nM, 25 °C, n = 3
T2 construct: This is consistent with the recombinant proteins, we used in the screening process; purchased BioTeZ Berlin-Buch GmbH 30 400 102
T2 sequence (O75173 213-685): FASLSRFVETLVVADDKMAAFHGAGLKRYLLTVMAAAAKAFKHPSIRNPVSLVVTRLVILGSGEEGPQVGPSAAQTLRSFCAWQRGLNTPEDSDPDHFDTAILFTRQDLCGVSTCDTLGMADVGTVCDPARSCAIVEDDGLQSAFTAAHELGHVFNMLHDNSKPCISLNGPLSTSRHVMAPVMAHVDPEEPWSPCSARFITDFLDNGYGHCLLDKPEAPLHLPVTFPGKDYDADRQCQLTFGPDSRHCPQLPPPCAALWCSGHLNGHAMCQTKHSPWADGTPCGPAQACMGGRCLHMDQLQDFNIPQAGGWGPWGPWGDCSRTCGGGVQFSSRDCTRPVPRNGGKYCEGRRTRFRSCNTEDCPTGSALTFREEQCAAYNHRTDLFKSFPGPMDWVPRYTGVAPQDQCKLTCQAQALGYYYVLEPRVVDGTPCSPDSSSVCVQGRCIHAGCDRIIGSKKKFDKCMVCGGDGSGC
Method: Microscale thermophoresis (MST) was performed on a Monolith Pico (NanoTemper, Munich, Germany). The Cy5-labeled peptides were diluted into the MST buffer (150 mM NaCl, 50 mM TRIS-HCl, 5 mM CaCl2, and Tween-20) to reach a dilution of 6 nM. ADAMTS4, ADAMTS5, and ADAMTS1 were directly used with the supplied concentration. For ADAMTS4, the starting concentration was 4.96 µM, while for ADAMTS1 it was 4.88 µM and for ADAMTS5 it was 2.46 µM. […] 20 µl of the protein solutions were transferred into a PCR tube. 10 µl of this first vial was transferred into a second vial and mixed by pipetting with 10 µl of the MST buffer. The dilution series was continued 14 times. From tube 16, 10 µl were removed. Into all 16 tubes, 10 µl of the respective peptide solution were added and mixed by pipetting. The samples were incubated for 20 min and subsequently transferred to premium capillaries (NanoTemper, Munich, Germany). The capillaries were transferred into the Monolith tray and measured with 10% excitation power on the pico-red excitation on high MST power at 25 °C. Analysis was performed with MO.Affinity Analysis v3.0.1 (NanoTemper, Munich, Germany) and Origin 2022 (OriginLab Corporation, Northampton, MA). […] We checked for ADAMTS4 and the ADAMTS4-specific-Cy5-labeled probe via a saturation test for specifying the ligand-dependent fluorescence change. Therefore, the three highest ligand concentrations and the three lowest ligand concentrations of the measurement were used and centrifuged for 15 min at 16060 x g at 20 °C. Of each concentration, 7 µl were picked and mixed with 7 µl of a 10 M urea solution each. The samples were heated at 95 °C for 5 min and measured in the MST. […] Each measurement was repeated three times independently and the binding constant was calculated by merging all three measurements. […] The data were normalized using MO Affinity Analysis v3.0.1 and the fraction bound [−] was shown. […] Therefore, the percentage variance of the values to the average was plotted.
All measurements were performed with 10% LED power, high MST power and at 25 °C. The ligand dependent fluorescence change was used for determining the binding. […] The concentrations of the peptide were kept constant (3 nM in the measurement), while the proteins were diluted in the same manner as for ADAMTS4. […] The Cy5-labeled peptides (3 nM in the measurement) were kept constant, while ADAMTS4 was diluted in the same manner for each peptide (n=3 biologically independent measurements for each peptide; the data are presented as mean values ± SD). […] MST: microscale thermophoresis; nM: nanomolar; His: L-histidine; LED: light-emitting diode; n/a: not available; KD: binding constant.

Row | Structure (SMILES) | longitudinal relaxivity, unbound probe (ADAMTS4 [1]) [mM⁻¹ s⁻¹] | longitudinal relaxivity, bound probe (ADAMTS4 [1]; ADAMTS4 added) [mM⁻¹ s⁻¹] | binding to ADAMTS4 (ligand-dependent fluorescence change), in words (ADAMTS4 [2])
1 | N=C(N)NCCC[C@@H]1NC(=O)[C@H](CCCNC(=N)N)NC(=O)[C@H](CO)NC(=O)[C@@H](N)CSSC[C@@H](C(=O)N[C@@H](CO)C(=O)NCC(=O)NCC(=O)N[C@@H](CO)C(=O)NCC(=O)NCC(=O)N[C@@H](CCCCNC(=O)CN2CCN(CC(=O)O)CCN(CC(=O)O)CCN(CC(=O)O)CC2)C(=O)NCC(N)=O)NC(=O)CNC1=O (Gd complex, metal not drawn) [ADAMTS4-specific probe] (H-CSRRGCSGGSGGK(DOTA)G-NH2; disulfide 1-6) | 3.4 ± 0.19 | 6.13 ± 0.73 | –
2 | C[N+]1=C(C=CC=CC=C2N(CCCCCC(=O)NCCCC[C@H](NC(=O)CNC(=O)CNC(=O)[C@H](CO)NC(=O)CNC(=O)CNC(=O)[C@H](CO)NC(=O)[C@@H]3CSSC[C@H](N)C(=O)N[C@@H](CO)C(=O)N[C@@H](CCCNC(=N)N)C(=O)N[C@@H](CCCNC(=N)N)C(=O)NCC(=O)N3)C(=O)NCC(N)=O)c3ccccc3C2(C)C)C(C)(C)c2ccccc21 [Cy5-labeled probe] (H-CSRRGCSGGSGGK(Cy5(nonsulfonated))G-NH2; disulfide 1-6; N-terminus and C-terminus assumed) | – | – | a ligand dependent fluorescence change occurs
